Reference: article PMC3302947

Molecular target: Vif(155–176) (PPLP peptide) (HIV-1)
Test: AUC

Vif(155–176) (PPLP peptide)
stoichiometry N: 2
